According to article PMC3907276 (Molecular Biology of the Cell, 2014):

Target: T1, Vph1NT-FLAG (first 406 amino acids of Vph1p with C-terminal FLAG) (S. cerevisiae, UniProt P32563 1-406)
T1 sequence (looked up): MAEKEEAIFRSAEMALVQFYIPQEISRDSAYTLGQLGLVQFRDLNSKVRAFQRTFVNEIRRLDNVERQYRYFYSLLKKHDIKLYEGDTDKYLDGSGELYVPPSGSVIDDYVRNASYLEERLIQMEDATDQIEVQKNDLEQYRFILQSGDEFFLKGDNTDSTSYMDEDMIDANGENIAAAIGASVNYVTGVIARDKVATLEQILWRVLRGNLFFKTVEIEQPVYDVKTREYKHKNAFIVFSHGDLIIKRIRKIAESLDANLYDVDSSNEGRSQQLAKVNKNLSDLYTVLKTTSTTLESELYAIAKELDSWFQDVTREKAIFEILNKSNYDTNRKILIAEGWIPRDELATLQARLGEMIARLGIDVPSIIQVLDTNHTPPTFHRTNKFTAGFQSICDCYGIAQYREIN
Test: pull-down

- binding result: binds
B1: GST-Rav1(840–1125) (domain or fragment, S. cerevisiae, UniProt P47104 840-1125, looked up)
chain: LTEQLTKTTLPYLTRHQQITLITVIEAVDEVTKNENIVDYNGVRFLLGVKLFLSHKNIQKSILMRDVSWALHSDNKEILLSSIDRHITSWNRAREYRIAYWIKEQDLVKKFEDIAKYEFSKDDKRDPSRCAIFYLALKKKQILLSLWKMAIGHPEQQKMVRFISNDFTVPRWRTAALKNAFVLLSKHRYMDAAVFFLLTDSLKDCVNVLCKQVHDMDLAIGVCRVYEGDNGPVLGELLTAQMLPETIKENDRWKASFIYWKLRKQEVAIKALLTAPIDLENNSSIV
